# Assay results published in article PMC8041999.
# B1: FLAG-tagged KIR2DL2, full-length, wild type, on 293T cells [human] / HLA-C*03:04-GL9 tetramer (phycoerythrin-conjugated) [modified: biotin (enzymatically, with biotin ligase)] [human] (parent)
# chain 1: HEGVHRKPSLLAHPGRLVKSEETVILQCWSDVRFEHFLLHREGKFKDTLHLIGEHHDGVSKANFSIGPMMQDLAGTYRCYGSVTHSPYQLSAPSDPLDIVITGLYEKPSLSAQPGPTVLAGESVTLSCSSRSSYDMYHLSREGEAHECRFSAGPKVNGTFQADFPLGPATHGGTYRCFGSFRDSPYEWSNSSDPLLVSVIGNPSNSWPSPTEPSSKTGNPRHLHILIGTSVVIILFILLFFLLHRWCSNKKNAAVMDQESAGNRTANSEDSDEQDPQEVTYTQLNHCVFTQRKITRPSQRPKTPPTDIIVYAELPNAESRSKVVSCP
# chain 2: not shown
# chain 3: not shown
# chain 4: GAVDPLLAL
# B2: FLAG-tagged KIR2DL3, full-length, wild type, on 293T cells [human] / HLA-C*03:04-GL9 tetramer (phycoerythrin-conjugated) [modified: biotin (enzymatically, with biotin ligase)] [human] (parent)
# chain 1: HEGVHRKPSLLAHPGPLVKSEETVILQCWSDVRFQHFLLHREGKFKDTLHLIGEHHDGVSKANFSIGPMMQDLAGTYRCYGSVTHSPYQLSAPSDPLDIVITGLYEKPSLSAQPGPTVLAGESVTLSCSSRSSYDMYHLSREGEAHERRFSAGPKVNGTFQADFPLGPATHGGTYRCFGSFRDSPYEWSNSSDPLLVSVTGNPSNSWPSPTEPSSETGNPRHLHVLIGTSVVIILFILLLFFLLHRWCCNKKNAVVMDQEPAGNRTVNREDSDEQDPQEVTYAQLNHCVFTQRKITRPSQRPKTPPTDIIVYTELPNAEP
# chain 2: not shown
# chain 3: not shown
# chain 4: GAVDPLLAL
# B3: FLAG-tagged KIR2DL3, full-length, wild type, on 293T cells [human] / HLA-C*07:02-RL9 tetramer (phycoerythrin-conjugated) [modified: biotin (enzymatically, with biotin ligase)] [human | not stated] (parent)
# chain 1: B2 chain 1
# chain 2: not shown
# chain 3: not shown
# chain 4: RYRPGTVAL
# B4: FLAG-tagged KIR2DL2, full-length, wild type, on 293T cells [human] / HLA-C*07:02-RL9 tetramer (phycoerythrin-conjugated) [modified: biotin (enzymatically, with biotin ligase)] [human | not stated] (parent)
# chain 1: B1 chain 1
# chain 2: not shown
# chain 3: not shown
# chain 4: RYRPGTVAL
# Variants of: B1
# Assay: flow cytometry, HLA tetramer staining of transfected 293T cells
# Details: with HLA-C*03:04-GL9 tetramer (phycoerythrin-conjugated) [modified: biotin (enzymatically, with biotin ligase)] [human]; percentage tetramer+ normalised to percentage FLAG+; read off a plot
row,Variant,ratio to parent
1,chain 1 F181A,0.05

# Variants of: B2
# Assay: as above
# Details: with HLA-C*03:04-GL9 tetramer (phycoerythrin-conjugated) [modified: biotin (enzymatically, with biotin ligase)] [human]; percentage tetramer+ normalised to percentage FLAG+; read off a plot
row,Variant,ratio to parent
1,chain 1 F181A,0.07

# Variants of: B3
# Assay: as above
# Details: with HLA-C*07:02-RL9 tetramer (phycoerythrin-conjugated) [modified: biotin (enzymatically, with biotin ligase)] [human | not stated]; percentage tetramer+ normalised to percentage FLAG+; read off a plot
row,Variant,ratio to parent
1,chain 1 F181A,0.06

# Variants of: B4
# Assay: as above
# Details: with HLA-C*07:02-RL9 tetramer (phycoerythrin-conjugated) [modified: biotin (enzymatically, with biotin ligase)] [human | not stated]; percentage tetramer+ normalised to percentage FLAG+; read off a plot
row,Variant,ratio to parent
1,chain 1 F181A,0.02
